The text below walks through data of paper PMC3498290, “Mimicking Insect Communication: Release and Detection of Pheromone, Biosynthesized by an Alcohol Acetyl Transferase Immobilized in a Microreactor” (PLoS ONE, 2012).

Substrate in this data set: CC/C=C/C=C\CCCCCCCCO
In words: batch acetylation assay, Hanes-Woolf plot. Format: biochemical, Acinetobacter baylyi. The note with it: free enzyme in batch, before immobilization; co-substrate acetyl-CoA (300 µM in the preliminary time course); alcohol 1.25 µM-1.3 mM.

B1: Acinetobacter wax synthase (atf, alcohol acetyl transferase; His6-tagged diacylglycerol acyl transferase) (Acinetobacter baylyi ADP1) (protein)
chain: MRPLHPIDFIFLSLEKRQQPMHVGGLFLFQIPDNAPDTFIQDLVNDIRISKSIPVPPFNNKLNGLFWDEDEEFDLDHHFRHIALPHPGRIRELLIYISQEHSTLLDRAKPLWTCNIIEGIEGNRFAMYFKIHHAMVDGVAGMRLIEKSLSHDVTEKSIVPPWCVEGKRAKRLREPKTGKIKKIMSGIKSQLQATPTVIQELSQTVFKDIGRNPDHVSSFQAPCSILNQRVSSSRRFAAQSFDLDRFRNIAKSLNVTINDVVLAVCSGALRAYLMSHNSLPSKPLIAMVPASIRNDDSDVSNRITMILANLATHKDDPLQRLEIIRRSVQNSKQRFKRMTSDQILNYSAVVYGPAGLNIISGMMPKRQAFNLVISNVPGPREPLYWNGAKLDALYPASIVLDGQALNITMTSYLDKLEVGLIACRNALPRMQNLLTHLEEEIQLFEGVIAKQEDIKTAN
notes: His6-tagged, pET23a, E. coli Rosetta(DE3)pLysS; Ni-NTA and gel filtration; tag kept; plasmid from S. Uthoff (Muenster)
In general, Km refers to the concentration of substrate that gives half-maximal velocity. Turning to B1, the Km is 1.63 µM.
